Data as given in patent US20250195556A1, “COMPOSITIONS, KITS, AND METHODS TO INDUCE ACQUIRED CYTORESISTANCE USING STRESS PROTEIN INDUCERS” (FRED HUTCHINSON CANCER RESEARCH CENTER, priority 2014, published 2025).
Several values for one entry are separate records, joined by “and”; a condition that tells them apart may be missing. Identical values can stand only once.

Experiments:
[1] = tested on: HO-1; experiment: Renal cortical HO-1 mRNA (RT-PCR) and protein (ELISA) after IV myoglobin, SnPP or both (Example 1); format: in vivo, mice
Excerpt: The Glycerol Model of AKI. This is a widely used model of rhabdomyolysis-induced AKI that has been employed worldwide for 50 years. The model was used to test whether prophylactic interventions confer protection against AKI. Basically, the protocol is as follows: Male CD-1 mice (35-45 grams), obtained from Charles River Laboratories, Wilmington, M A were studied. Mice were maintained under standard vivarium conditions and generally housed for 1-3 weeks prior to study. The mice were placed in a cylindrical restraining cage, and then were given a tail vein injection of the test substances (see below) or test substance vehicle. The mice were then returned to their cages. Eighteen hours (hrs) later, the mice were briefly anesthetized by isoflurane inhalation, and given an intramuscular injection of hypertonic (50%) glycerol in a dose of 9 ml/Kg body weight. The dose is divided in two, with half injected into the muscle of each of the hind limbs. The mice were then returned to their cages. Eighteen hrs later, the mice were deeply anesthetized with pentobarbital (50-100 mg/Kg), the abdominal cavity was opened through a midline abdominal incision, a blood sample was obtained from the abdominal vena cava and the kidneys were resected. A kidney cross section was obtained and fixed in formalin for subsequent histologic analysis. The terminal blood samples were analyzed for BUN and creatinine, using commercially available assay kits. The remaining kidney tissue was subjected to cortical dissection, and the cortical tissues were then extracted for protein and RNA. The protein samples were saved for analysis of HO-1 levels, and the RNA samples were subjected to RT-PCR to quantify HO-1 mRNA as well as levels of other stress gene mRNAs (e.g. NGAL, haptoglobin, hemopexin, hepicidin).
Myoglobin+SnPP: To 5 mg of dry myoglobin was added 0.9 ml of PBS+0.1 ml of a stock SnPP solution (50 umole/ml). The resulting final concentrations were 5 mg/ml myoglobin+5 umoles/ml of SnPP. The tail vein was injected with 200 μl of this solution, which equals 1 mg myoglobin+1 umole SnPP. […]
Four hr post myoglobin vs myoglobin+SnPP vs SnPP alone experiments. To confirm that the myoglobin+SnPP has a synergistic effect in inducing HO-1 mRNA and HO-1 protein levels, each of the above combinations have been administered alone via tail vein injection. Four hrs later, the mice were sacrificed as noted above and the kidneys were harvested for assessment of HO-1 mRNA and protein levels. For additional information regarding methods, see Zager et al., Am J Physiol Renal Physiol. 2014 Jul. 30. Pii.

[2] = tested on: haptoglobin; experiment: Haptoglobin protein expression after SQ injection of myoglobin or myoglobin + PEG; format: in vivo, mice; conditions: 4 hour time point after SQ injection; control 9.5
Method: Myoglobin+PEG: To a stock solution of 20 mg/ml Mgb in PBS was added 100 mg/ml of PEG-6000; 250 ul. This was administered as a subcutaneous injection in the dorsal neck (250 ul total injection). For combined Mgb/PEG+SnPP, SnPP was added to the above in a concentration of 3 mg/ml.

[3] = Plasma LDH 4 hr after IV test agents (marker of liver, kidney, lung and heart injury); format: in vivo, mice; conditions: 4 hr IV
[4] = tested on: HK-2 cells; experiment: Myoglobin toxicity in HK-2 cells, MTT assay; format: cell-based; conditions: 10 mg/mL, 18 hr incubation, vs control incubated cells
Method: Example 3. […] HK-2 cells (a proximal tubule cell line derived from normal human kidney) were incubated in keratinocyte serum free medium either under normal (control) conditions or in the presence of 10 mg/mL horse skeletal muscle myoglobin or nitrited myoglobin (produced by equimolar Na nitrite addition to 10 mg/ml myoglobin). After 18 hr incubations, the severity of cell injury (% cell death) was assessed by MTT assay. Myoglobin induced 40% cell death (40% decrease in MTT cell uptake), compared to control incubated cells. Nitrite binding to myoglobin reduced cell death by 75%. Thus, nitrite binding is able to reduce myoglobin's cytotoxic effects.

[5] = tested on: HO-1; experiment: Renal cortical HO-1 mRNA (RT-PCR) and protein (ELISA) after IV myoglobin, SnPP or both (Example 1); format: in vivo, mice; conditions: 1 mg myoglobin, 1 μmole SnPP

B1: Myoglobin: Lyophilized horse skeletal muscle (myoglobin) (Sigma Chemicals) used as the test agent (protein, listed as Homo sapiens)
chain: MGLSDGEWQLVLNVWGKVEADIPGHGQEVLIRLFKGHPETLEKFDKFKHLKSEDEMKASEDLKKHGATVLTALGGILKKKGHHEAEIKPLAQSHATKHKIPVKYLEFISECIIQVLQSKHPGDFGADAQGAMNKALELFRKDMASNYKELGFQG
HO-1 protein expression (by ELISA), Average ([1]; cortex, 4 hr IV, 1 mg myoglobin, 1 μmole SnPP, PBS 13.5, carrier 21.5): 45.4 ng HO-1/mg protein
HO-1 protein expression (by ELISA) ([1]; cortex, 4 hr IV, 1 mg myoglobin, 1 μmole SnPP, individual mice): 40.7 ng HO-1/mg protein and 40.2 ng HO-1/mg protein and 64.7 ng HO-1/mg protein and 36.0 ng HO-1/mg protein
HO-1/GAPDH mRNA, Average ([1]; kidney, 4 hr post IV injection, control average 1.93): 3.93
HO-1/GAPDH mRNA ([1]; kidney, 4 hr post IV injection, individual mice): 7.78 and 2.93 and 2.58 and 2.41
Haptoglobin protein expression [2]: 32.7 ± 6.3 ng/mg protein
Plasma LDH, Average ([3]; carrier 4.43): 4.47 Absorbance U LDH/ml
Plasma LDH ([3]; individual subjects): 4.54 Absorbance U LDH/ml (2×) and 3.90 Absorbance U LDH/ml and 4.91 Absorbance U LDH/ml
Cell death (decrease in MTT cell uptake) [4]: 40%
HO-1 mRNA induction (HO-1/GAPDH mRNA) ([5]; overnight (roughly 18 hrs) post IV, individual subjects): 0.71 and 0.53 and 0.51
HO-1 protein induction ([5]; overnight (roughly 18 hrs) post IV, individual subjects, in ng/mg protein): 50.6 and 34.9 and 24.6
HO-1 mRNA induction (HO-1/GAPDH mRNA), Average ([5]; overnight post IV, control 0.46): 0.58
HO-1 protein induction, Average ([5]; overnight post IV, control 20.5): 36.7
